45 variants from the Human Domainome abundance scans (Beltran et al. 2025) can be followed below.

B1: Neutrophil cytosol factor 2, residues 456 to 514; numbered along this chain, P19878 (parent)
chain: LKKGSQVEALFSYEATQPEDLEFQEGDIILVLSKVNEEWLEGECKGKVGIFPKVFVEDC

± gives the uncertainty stated by the source.

In this series the parent is B1. Description: abundance fitness (aPCA) (normalised: wild type 0, dead -1); higher = more abundant; growth selection in yeast, the domain comes from the species named. The conditions noted are these: Homo sapiens.
For the variant LKKGSQVEALFSYEATQPEDLEFQEGDIILVLTKVNEEWLEGECKGKVGIFPKVFVEDC [S33T], the abundance fitness was -0.289 ± 0.18.
As for LKKGSQVEALFSYEATQPEDLEFQEGDIILVLMKVNEEWLEGECKGKVGIFPKVFVEDC [S33M], the abundance fitness is -0.677 ± 0.41.
The same measure for LKKGSQVEALFSYEATQPEDLEFQEGDIILVLHKVNEEWLEGECKGKVGIFPKVFVEDC [S33H]: -0.596 ± 0.18; for LKKGSQVEALFSYEATQPEDLEFQEGDIILVLVKVNEEWLEGECKGKVGIFPKVFVEDC [S33V]: -0.091 ± 0.081.
The figure for LKKGSQVEALFSYEATQPEDLEFQEGDIILVLDKVNEEWLEGECKGKVGIFPKVFVEDC [S33D] is 0.4 ± 0.072; for LKKGSQVEALFSYEATQPEDLEFQEGDIILVLQKVNEEWLEGECKGKVGIFPKVFVEDC [S33Q] it is -0.111 ± 0.27; for LKKGSQVEALFSYEATQPEDLEFQEGDIILVLKKVNEEWLEGECKGKVGIFPKVFVEDC [S33K] it is 0.213 ± 0.17.
The same measure for LKKGSQVEALFSYEATQPEDLEFQEGDIILVLPKVNEEWLEGECKGKVGIFPKVFVEDC [S33P]: -0.554 ± 0.2.
For the variant LKKGSQVEALFSYEATQPEDLEFQEGDIILVYSKVNEEWLEGECKGKVGIFPKVFVEDC [L32Y], the abundance fitness was -0.249 ± 0.13.
The figure for LKKGSQVEALFSYEATQPEDLEFQEGDIILVDSKVNEEWLEGECKGKVGIFPKVFVEDC [L32D] is -0.054 ± 0.095; for LKKGSQVEALFSYEATQPEDLEFQEGDIILVPSKVNEEWLEGECKGKVGIFPKVFVEDC [L32P] it is -0.146 ± 0.15.
For LKKGSQVEALFSYEATQPEDLEFQEGDIILVTSKVNEEWLEGECKGKVGIFPKVFVEDC [L32T], the abundance fitness came out at 0.325 ± 0.088.
The figure for LKKGSQVEALFSYEATQPEDLEFQEGDIILVNSKVNEEWLEGECKGKVGIFPKVFVEDC [L32N] is 0.304 ± 0.095; for LKKGSQVEALFSYEATQPEDLEFQEGDIILVHSKVNEEWLEGECKGKVGIFPKVFVEDC [L32H] it is 0.166 ± 0.1; for LKKGSQVEALFSYEATQPEDLEFQEGDIILVSSKVNEEWLEGECKGKVGIFPKVFVEDC [L32S] it is -0.069 ± 0.079.
The figure for LKKGSQVEALFSYEATQPEDLEFQEGDIILVCSKVNEEWLEGECKGKVGIFPKVFVEDC [L32C] is -0.428 ± 0.13; for LKKGSQVEALFSYEATQPEDLEFQEGDIILVQSKVNEEWLEGECKGKVGIFPKVFVEDC [L32Q] it is -0.143 ± 0.34; for LKKGSQVEALFSYEATQPEDLEFQEGDIILVMSKVNEEWLEGECKGKVGIFPKVFVEDC [L32M] it is -0.532 ± 0.49.
The same measure for LKKGSQVEALFSYEATQPEDLEFQEGDIILVRSKVNEEWLEGECKGKVGIFPKVFVEDC [L32R]: 0.564 ± 0.079; for LKKGSQVEALFSYEATQPEDLEFQEGDIILVESKVNEEWLEGECKGKVGIFPKVFVEDC [L32E]: -0.299 ± 0.19.
In the case of LKKGSQVEALFSYEATQPEDLEFQEGDIILVASKVNEEWLEGECKGKVGIFPKVFVEDC [L32A], the abundance fitness was -0.297 ± 0.14.
The figure for LKKGSQVEALFSYEATQPEDLEFQEGDIILVKSKVNEEWLEGECKGKVGIFPKVFVEDC [L32K] is 0.194 ± 0.15; for LKKGSQVEALFSYEATQPEDLEFQEGDIILVISKVNEEWLEGECKGKVGIFPKVFVEDC [L32I] it is -0.06 ± 0.11; for LKKGSQVEALFSYEATQPEDLEFQEGDIILVFSKVNEEWLEGECKGKVGIFPKVFVEDC [L32F] it is -0.118 ± 0.12.
The same measure for LKKGSQVEALFSYEATQPEDLEFQEGDIILVVSKVNEEWLEGECKGKVGIFPKVFVEDC [L32V]: -0.297 ± 0.1; for LKKGSQVEALFSYEATQPEDLEFQEGDIILKLSKVNEEWLEGECKGKVGIFPKVFVEDC [V31K]: -0.621 ± 0.48; for LKKGSQVEALFSYEATQPEDLEFQEGDIILNLSKVNEEWLEGECKGKVGIFPKVFVEDC [V31N]: -0.092 ± 0.092.
The figure for LKKGSQVEALFSYEATQPEDLEFQEGDIILRLSKVNEEWLEGECKGKVGIFPKVFVEDC [V31R] is -0.581 ± 0.16.
In the case of LKKGSQVEALFSYEATQPEDLEFQEGDIILYLSKVNEEWLEGECKGKVGIFPKVFVEDC [V31Y], the abundance fitness was -0.479 ± 0.13.
The same measure for LKKGSQVEALFSYEATQPEDLEFQEGDIILWLSKVNEEWLEGECKGKVGIFPKVFVEDC [V31W]: -0.6 ± 0.45.
The same measure for LKKGSQVEALFSYEATQPEDLEFQEGDIILGLSKVNEEWLEGECKGKVGIFPKVFVEDC [V31G]: 0.001 ± 0.071; for LKKGSQVEALFSYEATQPEDLEFQEGDIILCLSKVNEEWLEGECKGKVGIFPKVFVEDC [V31C]: -0.418 ± 0.14.
The same measure for LKKGSQVEALFSYEATQPEDLEFQEGDIILTLSKVNEEWLEGECKGKVGIFPKVFVEDC [V31T]: -0.482 ± 0.19.
As for LKKGSQVEALFSYEATQPEDLEFQEGDIILHLSKVNEEWLEGECKGKVGIFPKVFVEDC [V31H], the abundance fitness was -0.369 ± 0.14.
The figure for LKKGSQVEALFSYEATQPEDLEFQEGDIILPLSKVNEEWLEGECKGKVGIFPKVFVEDC [V31P] is -0.046 ± 0.14; for LKKGSQVEALFSYEATQPEDLEFQEGDIILFLSKVNEEWLEGECKGKVGIFPKVFVEDC [V31F] it is -0.354 ± 0.13.
The same measure for LKKGSQVEALFSYEATQPEDLEFQEGDIILILSKVNEEWLEGECKGKVGIFPKVFVEDC [V31I]: 0.342 ± 0.077; for LKKGSQVEALFSYEATQPEDLEFQEGDIILLLSKVNEEWLEGECKGKVGIFPKVFVEDC [V31L]: 0.041 ± 0.11; for LKKGSQVEALFSYEATQPEDLEFQEGDIIQVLSKVNEEWLEGECKGKVGIFPKVFVEDC [L30Q]: 0.5 ± 0.16.
The same measure for LKKGSQVEALFSYEATQPEDLEFQEGDIIYVLSKVNEEWLEGECKGKVGIFPKVFVEDC [L30Y]: 0.079 ± 0.094; for LKKGSQVEALFSYEATQPEDLEFQEGDIIWVLSKVNEEWLEGECKGKVGIFPKVFVEDC [L30W]: -0.513 ± 0.33.
With LKKGSQVEALFSYEATQPEDLEFQEGDIITVLSKVNEEWLEGECKGKVGIFPKVFVEDC [L30T], the abundance fitness was 1.05 ± 0.089.
The figure for LKKGSQVEALFSYEATQPEDLEFQEGDIIRVLSKVNEEWLEGECKGKVGIFPKVFVEDC [L30R] is 0.552 ± 0.07; for LKKGSQVEALFSYEATQPEDLEFQEGDIIVVLSKVNEEWLEGECKGKVGIFPKVFVEDC [L30V] it is -0.07 ± 0.095; for LKKGSQVEALFSYEATQPEDLEFQEGDIISVLSKVNEEWLEGECKGKVGIFPKVFVEDC [L30S] it is 0.469 ± 0.068.
